Numbering of substitutions follows the chain as printed. Several values for one entry are separate records, joined by “and”; a condition that tells them apart may be missing. Equal values may be shown once.

Common to all, as to test: SPR
In assay [1] the target is T1, BB_1wnu_001 (backbone grafting 2F5 epitope scaffold on parent PDB 1wnu) (designed scaffold on Pyrococcus …).
T1 chain: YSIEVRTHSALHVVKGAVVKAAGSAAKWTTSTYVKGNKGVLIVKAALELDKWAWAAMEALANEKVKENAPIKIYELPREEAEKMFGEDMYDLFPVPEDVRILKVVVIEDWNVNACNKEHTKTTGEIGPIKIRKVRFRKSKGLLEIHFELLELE

Assay [2] addresses T2, BB_2cx5_001 (backbone grafting 2F5 epitope scaffold on parent PDB 2cx5) (designed scaffold on Thermus …).
T2 chain: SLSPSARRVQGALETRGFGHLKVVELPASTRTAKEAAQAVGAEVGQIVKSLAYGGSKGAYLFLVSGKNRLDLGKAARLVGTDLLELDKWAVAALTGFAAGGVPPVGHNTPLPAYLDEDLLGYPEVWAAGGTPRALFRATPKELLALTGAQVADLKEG

Assay [3] deals with T3, SC_2cx5 (side-chain grafting 2F5 epitope scaffold on parent PDB 2cx5) (designed scaffold on Thermus …).
T3 chain: T2 chain with A52V, S56E, A76T, T81G, D82P, L86A, A98D

The target in assay [4] is T4, SC_1wnu (side-chain grafting 2F5 epitope scaffold on parent PDB 1wnu) (designed scaffold on Pyrococcus …).
T4 chain: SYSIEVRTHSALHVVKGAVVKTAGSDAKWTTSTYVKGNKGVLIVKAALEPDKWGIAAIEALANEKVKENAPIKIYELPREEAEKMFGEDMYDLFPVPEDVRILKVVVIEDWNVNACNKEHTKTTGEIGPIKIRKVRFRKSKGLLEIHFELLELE

B1: 2F5 monoclonal antibody (2F5 IgG) (antibody, V domains shown)
VH: RITLKESGPPLVKPTQTLTLTCSFSGFSLSDFGVGVGWIRQPPGKALEWLAIIYSDDDKRYSPSLNTRLTITKDTSKNQVVLVMTRVSPVDTATYFCAHRRGPTTLFGVPIARGPVNAMDVWGQGITVTISS
VL: ALQLTQSPSSLSASVGDRITITCRASQGVTSALAWYRQKPGSPPQLLIYDASSLESGVPSRFSGSGSGTEFTLTISTLRPEDFATYYCQQLHFYPHTFGGGTRVDVR
B1: the Kd (as a rule, a measure of binding affinity in units of concentration) in assay [1] was 8.3 nM and 8.7 nM; in assay [2], 1.4 nM; in assay [3] it was 40.2 nM and 38.3 nM; in assay [4] it was 91 nM. In assay [4], the “Kd kinetic, step 1 (conformational change model)” value turned out to be 0.000109 mM. For the same molecule, the “Kd kinetic, step 2 (conformational change model)” value in assay [4] is 3800 mM.

Source of the values: PMC7105911 (Journal of Molecular Biology, 2011).
